Results reported in patent publication US20180265890.

System: T1, PiggyBac transposase with c-myc NLS
T1 sequence: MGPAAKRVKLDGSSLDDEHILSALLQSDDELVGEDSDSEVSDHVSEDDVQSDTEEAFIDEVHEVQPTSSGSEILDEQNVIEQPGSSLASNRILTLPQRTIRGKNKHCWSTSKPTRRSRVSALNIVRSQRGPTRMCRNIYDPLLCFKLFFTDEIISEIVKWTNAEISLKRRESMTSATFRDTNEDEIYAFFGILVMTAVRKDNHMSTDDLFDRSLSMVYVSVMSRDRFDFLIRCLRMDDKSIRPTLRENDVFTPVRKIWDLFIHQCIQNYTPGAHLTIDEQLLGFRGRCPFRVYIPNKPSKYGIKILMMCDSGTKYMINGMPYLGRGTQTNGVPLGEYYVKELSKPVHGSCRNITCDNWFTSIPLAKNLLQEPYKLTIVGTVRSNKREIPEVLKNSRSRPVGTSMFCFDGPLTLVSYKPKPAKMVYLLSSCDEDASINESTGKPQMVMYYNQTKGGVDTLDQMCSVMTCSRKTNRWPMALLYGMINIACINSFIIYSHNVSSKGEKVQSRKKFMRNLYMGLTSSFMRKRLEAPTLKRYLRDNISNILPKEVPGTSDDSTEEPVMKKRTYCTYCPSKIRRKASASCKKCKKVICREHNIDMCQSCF
Assay: cell_activity
Conditions: pNB328-EGFP in Jurkat cells after 3 passages; both terminal repeats present together; K562 40.54%, primary T 56.9%, mouse ES 73.12%

“GCATGCGTCAATTTTACGCAGACTATCTTTCTAGGGTTAA (double strand) [PiggyBac 3'-terminal repeat]” gave an activity (% EGFP positive cells) of 36.4.
Sequence “TTAACCCTAGAAAGATAATCATATTGTGACGTACGTTAAAGATAATCATGCGTAAAATTGACGCATG (double strand) [PiggyBac 5'-terminal repeat]” has an activity (% EGFP positive cells) of 36.4.
